B1: S009-F7.41.18 chimeric antibody (antibody, human IgG1, kappa, V domains shown)
VH: QVQLQQPGTELVKPGASVKLSCKASDYTFTSYWMHWVKQRPGQGLEWIGSINPSNGDTYYNEKFKNKATLTVDKSSSTAYMQLSSLTSDDSAVYYCARGWYFDVWGTGTTVTVSS
VL: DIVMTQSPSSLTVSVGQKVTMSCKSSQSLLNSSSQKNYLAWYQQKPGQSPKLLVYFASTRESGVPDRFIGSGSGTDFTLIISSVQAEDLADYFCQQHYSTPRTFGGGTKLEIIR
notes: Human-murine chimeric antibody, human IgG1/kappa constant regions
B2: S009-F7.44.20 chimeric antibody (antibody, human IgG1, kappa, V domains shown)
VH: EVQLQQSGPELVKPGASVKIPCKASGYTFTDYNMDWVKQSHGKSLEWIGDINPSTGGTIYNQKFNGKATLTEDKSASTVYMEFRSLTSDDTAVYYCARRRIGTGYFDVWGTGTTVTVSS
VL: QIVLTQSPALMSASPGEKVTLTCSASSSVISSYLSWYQQKPGSSPKLLIYRTSNLASGVPARFSGSGSGTSYSLTISSMEAEDAASYFCHQWSSFPYTFGGGTKLEIKR
notes: as for B1
B3: S009-F7.26.15 chimeric antibody (antibody, human IgG1, kappa, V domains shown)
VH: DVQLQESGPGLVKPSQTVFLTCTVTGISITTGNYRWSWIRQFPGNKLEWIGYIYYTGFITYNPSLTSRTTITRDTPKNQFFLEMKSLTAEDTATYYCARDDYDYDVFAYWGQGTLVTVSA
VL: DIQMTQSPASLSASVGETVTITCRASGNIHNYLAWYHQKQGKSPQFLVYKAKTLADGVPSRFSGSGSGTQYSLKINRLQPEDFGSYYCQHFLSIPLTFGAGTKLELKR
notes: as for B1
B4: S009-F7.21.16 chimeric antibody (antibody, human IgG1, kappa, V domains shown)
VH: QVQLQQPGTELVKPGASVKLSCKASGYTFTTFWMHWVKQRPGQGLEWIGGVNPTNGGTNYNEKFRTKATLTVDKSSTTADMQLSSLTSEDSAVYYCAPHYISSRPGFAYWGQGTLVTVSG
VL: DIVMTQSQKFMSTSGGDRVSVTCKASQNVGTNVAWYQQKPGQSPKALIYSASYRYSGVPDRFTGSGSGTDFILTISNVQSEDLAEYFCQQYNSYPLTFGGGTKLEIKR
notes: as for B1
B5: S009-F7.33.24 chimeric antibody (antibody, human IgG1, kappa, V domains shown)
VH: B4 VH with T31S, F32Y, G50N, T54S, T58S, R65K, T66N, T77S, S84N, S102G
VL: B4 VL with G15V, V33I, I72T, S76T, L104V
notes: as for B1
B6: S009-F7.30.5 chimeric antibody (antibody, human IgG1, kappa, V domains shown)
VH: QVQLQQPKTELVKPGASVKLSCKASGYIFTTYWMHWVKQRPGQGLEWIGNVNPSNGGTMYNEKFERRATLTVDKSSSTADMQLSSLTSEDSAVYYCVPHYIGSRPGFAYWGQGTLVTVSG
VL: B4 VL with G15V, Q38H, I48L, I72T, S76T
notes: as for B1
B7: S009-F7.48.1 chimeric antibody (antibody, human IgG1, kappa, V domains shown)
VH: QVQLQQPGTELVKPGASVKLSCKASGYTFTSYWMHWVKQRPGQGLEWIGNINPSNGGTNNNENFKSKATLTVDTSSSTAYMQLSSLTSEDSAVYYCVRNGYHGYWYFDVWGTGTTVTVSS
VL: B4 VL with G15V, K39Q, G66V, I72T
notes: as for B1
B8: S009-F7.23.19 chimeric antibody (antibody, human IgG1, kappa, V domains shown)
VH: EVKLVESGGGLVQPGGSLSLSCAASGFTFTDYYMSWVRQPPGKALEWLGFIRSKANAYTTEYSASVKGRFTISRDNSQSILYLQMNDLRAEDSATYYCARYYYYGSGYVWYFDVWGTGTTVTVSS
VL: B4 VL with G15V, N28S, S43F, I72T, S76I, G100A, I106L
notes: as for B1

Residue numbers refer to the chain shown, from its start.

The record followed here is patent US20250250357A1 (NANJING ZAIMING PHARMACEUTICAL, published 2025).

For the first assay, the target named is T1, human MSLN-FL-his protein (human, UniProt Q13421 296-580).
T1 construct: Made in HEK293E cells, purified on nickel column; also called hMSLN-FL-his; human MSLN full-length protein; not shown: His tag
The assay can be described thus: ELISA, coated antigen, antibody 0.002 nM. For orientation: An ELISA detects its analyte on a solid surface through an enzyme-linked reagent.
With B1, the OD450 is 0.25.

Molecule B2 returned an OD450 of 0.93.

B3 registered an OD450 of 0.91.

In the case of B4, the OD450 is 0.82.

As to B5, the OD450 was found to be 1.06.

Turning to B6, the OD450 came out at 0.96.

B7 had an OD450 of 0.24.

For B8, the OD450 was determined as 0.41.

A further assay deals with T2, human MSLN-R1-his protein (human, UniProt Q13421 296-390).
T2 construct: Made in HEK293E cells, purified on nickel column; also called hMSLN-R1-his; human MSLN-R1 protein; not shown: His tag
T2 chain: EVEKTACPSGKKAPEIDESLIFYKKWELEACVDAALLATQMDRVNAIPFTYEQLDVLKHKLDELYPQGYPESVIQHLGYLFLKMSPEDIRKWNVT
The experiment in a line: ELISA, coated antigen, antibody 20 nM.
In the case of B1, the OD450 is 0.07.

Take B2: the OD450 was 0.05.

Turning to B3, the OD450 was 0.06.

With B4, the OD450 was found to be 0.06.

Molecule B5 returned an OD450 of 0.08.

Regarding B6, the OD450 is 0.1.

Consider B7, for which the OD450 was 0.05.

On to B8, for which the OD450 came to 0.05.

The target in the next assay is T1, human MSLN-FL-his protein. The experiment in a line: ELISA, coated antigen, no antibody (blank).
Experimental: (§1) The plate was sealed with a plastic film and incubated at 4° C. overnight. The next day, the plate was washed twice with PBST, and a blocking buffer [PBS+2% (w/w) BSA] was added for blocking at room temperature for 2 h. The blocking buffer was discarded, and a chimeric antibody or negative control antibody serially diluted from 100 nM was added at 50 μL/well. After incubation at 37° C. for 2 h, the plate was washed 3 times with PBST. […] After incubation at 37° C. for 2 h, the plate was washed 5 times with PBST. A TMB substrate was added at 50 μL/well for incubation at room temperature for 5-10 min, and then a stop solution (1.0 N HCl) was added at 50 μL/well.
As for B1, the OD450 was 0.06.

As to B2, the OD450 is 0.06.

Turning to B3, the OD450 turned out to be 0.06.

As for B4, the OD450 is 0.08.

With B5, the OD450 turned out to be 0.06.

The molecule B6 gave an OD450 of 0.06.

B7 registered an OD450 of 0.06.

Molecule B8 showed an OD450 of 0.06.

Another assay concerns the target T2, human MSLN-R1-his protein. The experiment in a line: ELISA, coated antigen, antibody 2 nM.
Experimental: as §1
In the case of B1, the OD450 was 0.06.

As for B2, the OD450 was found to be 0.04.

With B3, the OD450 was 0.05.

For the molecule B4, the OD450 was determined as 0.05.

In the case of B5, the OD450 was 0.06.

In turn, B6 gave an OD450 of 0.06.

B7 registered an OD450 of 0.04.

The molecule B8 registered an OD450 of 0.05.

In the next assay the target is T1, human MSLN-FL-his protein. The experiment in a line: ELISA, coated antigen, antibody 2 nM.
Take B1: the OD450 amounted to 2.26.

B2 gave an OD450 of 2.24.

B3: the OD450 was found to be 2.43.

Turning to B4, the OD450 was determined as 2.31.

B5 gave an OD450 of 2.54.

Molecule B6 gave an OD450 of 2.41.

The molecule B7 had an OD450 of 2.12.

In turn, B8 showed an OD450 of 2.4.

The next assay has as its target T1, human MSLN-FL-his protein. The assay can be described thus: ELISA, coated antigen, antibody 20 nM.
Regarding B1, the OD450 is 2.24.

Consider B2, for which the OD450 was 2.21.

For B3, the OD450 was determined as 2.52.

As for B4, the OD450 was 2.46.

The molecule B5 had an OD450 of 2.53.

With B6, the OD450 is 2.43.

Take B7: the OD450 was found to be 2.21.

B8: the OD450 was found to be 2.46.

Another assay concerns the target T2, human MSLN-R1-his protein. The experiment in a line: ELISA, coated antigen, antibody 0.2 nM.
Experimental: as §1
On to B1, for which the OD450 was 0.06.

Turning to B2, the OD450 came out at 0.04.

Take B3: the OD450 worked out at 0.05.

B4 returned an OD450 of 0.05.

In turn, B5 returned an OD450 of 0.05.

B6 gave an OD450 of 0.05.

On to B7, for which the OD450 is 0.04.

Molecule B8 yielded an OD450 of 0.05.

Another assay addresses T2, human MSLN-R1-his protein. The experiment in a line: ELISA, coated antigen, no antibody (blank).
Experimental: as §1
In turn, B1 registered an OD450 of 0.06.

Turning to B2, the OD450 is 0.06.

Take B3: the OD450 was found to be 0.06.

For the molecule B4, the OD450 came out at 0.07.

Molecule B5 came in with an OD450 of 0.06.

The molecule B6 showed an OD450 of 0.06.

As for B7, the OD450 was 0.06.

For the molecule B8, the OD450 stood at 0.06.

A further assay concerns the target T2, human MSLN-R1-his protein. The assay can be described thus: ELISA, coated antigen, antibody 200 nM.
Experimental: as §1
B1 displayed an OD450 of 0.09.

In turn, B2 displayed an OD450 of 0.07.

Molecule B3 had an OD450 of 0.12.

B4 had an OD450 of 0.17.

Turning to B5, the OD450 is 0.15.

B6 came in with an OD450 of 0.32.

Take B7: the OD450 was found to be 0.07.

Molecule B8 showed an OD450 of 0.08.

A further assay concerns the target T2, human MSLN-R1-his protein. The experiment in a line: ELISA, coated antigen, antibody 0.02 nM.
Experimental: as §1
In the case of B1, the OD450 turned out to be 0.05.

Molecule B2 showed an OD450 of 0.04.

Molecule B3 showed an OD450 of 0.05.

Molecule B4 returned an OD450 of 0.05.

With B5, the OD450 stood at 0.06.

In the case of B6, the OD450 turned out to be 0.05.

In the case of B7, the OD450 was 0.04.

Turning to B8, the OD450 was 0.05.

For a further assay, the target named is T1, human MSLN-FL-his protein. The experiment in a line: ELISA, coated antigen, antibody 0.02 nM.
Regarding B1, the OD450 was found to be 1.

The molecule B2 returned an OD450 of 1.82.

Turning to B3, the OD450 was 1.76.

B4 returned an OD450 of 1.39.

Molecule B5 displayed an OD450 of 2.01.

On to B6, for which the OD450 amounted to 1.77.

In turn, B7 showed an OD450 of 0.86.

For the molecule B8, the OD450 was 1.32.

For the next assay, the target named is T1, human MSLN-FL-his protein. The experiment in a line: ELISA, coated antigen, antibody 200 nM.
Experimental: as §1
In turn, B1 returned an OD450 of 2.3.

In turn, B2 registered an OD450 of 2.36.

Turning to B3, the OD450 amounted to 2.39.

In turn, B4 came in with an OD450 of 2.42.

In the case of B5, the OD450 amounted to 2.48.

With B6, the OD450 amounted to 2.36.

As to B7, the OD450 worked out at 2.62.

On to B8, for which the OD450 turned out to be 2.5.

The target in another assay is T2, human MSLN-R1-his protein. The assay can be described thus: ELISA, coated antigen, antibody 0.002 nM.
Experimental: as §1
B1 returned an OD450 of 0.06.

Molecule B2 displayed an OD450 of 0.04.

B3 had an OD450 of 0.05.

Consider B4, for which the OD450 is 0.05.

In turn, B5 yielded an OD450 of 0.06.

For the molecule B6, the OD450 was found to be 0.05.

Molecule B7 had an OD450 of 0.04.

Consider B8, for which the OD450 is 0.05.

For a further assay, the target named is T1, human MSLN-FL-his protein. The assay can be described thus: ELISA, coated antigen, antibody 0.2 nM.
Turning to B1, the OD450 worked out at 2.04.

B2: the OD450 was 2.26.

B3 displayed an OD450 of 2.33.

B4 gave an OD450 of 2.15.

B5 gave an OD450 of 2.6.

In turn, B6 registered an OD450 of 2.39.

For B7, the OD450 was determined as 1.87.

Regarding B8, the OD450 stood at 2.22.

Another assay has as its target T2, human MSLN-R1-his protein. The assay can be described thus: ELISA, coated antigen, antibody 0.0002 nM.
Experimental: as §1
Regarding B1, the OD450 stood at 0.06.

As to B2, the OD450 turned out to be 0.04.

In turn, B3 returned an OD450 of 0.04.

For the molecule B4, the OD450 stood at 0.04.

Consider B5, for which the OD450 was determined as 0.06.

Take B6: the OD450 was 0.05.

On to B7, for which the OD450 is 0.04.

In turn, B8 returned an OD450 of 0.05.

The target in the next assay is T1, human MSLN-FL-his protein. The experiment in a line: ELISA, coated antigen, antibody 0.0002 nM.
Experimental: as §1
In the case of B1, the OD450 worked out at 0.08.

With B2, the OD450 was determined as 0.26.

Take B3: the OD450 came to 0.25.

With B4, the OD450 turned out to be 0.35.

As for B5, the OD450 amounted to 0.26.

Take B6: the OD450 is 0.36.

With B7, the OD450 stood at 0.09.

The molecule B8 displayed an OD450 of 0.11.
